Laboratory results reported in the supplement of paper PMC9112550, “Optimization of the antimicrobial peptide Bac7 by deep mutational scanning” (BMC Biology, 2022).

Tested on: Escherichia coli TOP10
Experiment: shrunken log2 fold change of peptide-encoding DNA abundance (4.5 h post-induction vs induction); higher = less antimicrobial activity (less host growth inhibition)
Conditions: time post-induction: 4.5 h; library: site-saturation at positions 5, 18, 19, 20
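Also: peptides expressed intracellularly from a pBAD plasmid library in pooled LB shake-flask culture, induced with 0.3% L-arabinose, DNA abundance read by NGS, three biological replicates, DESeq2 with apeglm shrinkage.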

| Sequence | shrunken log2 fold change |
| --- | --- |
| RRIRNRPPRLPRPRPRPNFSPRP | -0.0166 |
| RRIRHRPPRLPRPRPRPEWLPRP | 0.274 |
| RRIRMRPPRLPRPRPRPCFDPRP | 0.0386 |
| RRIRFRPPRLPRPRPRPNKCPRP | -0.273 |
| RRIRARPPRLPRPRPRPYPFPRP | -0.63 |
| RRIRLRPPRLPRPRPRPDSQPRP | -0.117 |
| RRIRRRPPRLPRPRPRPTQPPRP | 0.155 |
| RRIRKRPPRLPRPRPRPERTPRP | 0.772 |
| RRIRNRPPRLPRPRPRPPPVPRP | 0.933 |
| RRIRNRPPRLPRPRPRPCTGPRP | -0.0472 |
| RRIRQRPPRLPRPRPRPWDRPRP | -0.127 |
| RRIRLRPPRLPRPRPRPTKFPRP | -0.0571 |
| RRIRKRPPRLPRPRPRPAFKPRP | -0.0132 |
| RRIRERPPRLPRPRPRPSSEPRP | -0.137 |
| RRIRQRPPRLPRPRPRPSTEPRP | -0.0926 |
| RRIRQRPPRLPRPRPRPGQAPRP | 0.0026 |
| RRIRLRPPRLPRPRPRPKTSPRP | 0.0111 |
| RRIRCRPPRLPRPRPRPDCPPRP | -0.343 |
| RRIRDRPPRLPRPRPRPCCQPRP | -0.0183 |
| RRIRDRPPRLPRPRPRPLAAPRP | 0.913 |
| RRIRIRPPRLPRPRPRPQRSPRP | -0.0897 |
| RRIRGRPPRLPRPRPRPPRMPRP | 0.608 |
| RRIRRRPPRLPRPRPRPKMVPRP | 0.105 |
| RRIRERPPRLPRPRPRPYKEPRP | -0.117 |
| RRIRWRPPRLPRPRPRPDDTPRP | 0.222 |

| Sequence | shrunken log2 fold change |
| --- | --- |
| RRIRFRPPRLPRPRPRPEYRPRP | -0.218 |
| RRIRWRPPRLPRPRPRPMNSPRP | -0.0812 |
| RRIRWRPPRLPRPRPRPAYEPRP | -0.0308 |
| RRIRRRPPRLPRPRPRPMMFPRP | 0.284 |
| RRIRTRPPRLPRPRPRPVGGPRP | 0.837 |
| RRIRNRPPRLPRPRPRPIKQPRP | -0.0298 |
| RRIRKRPPRLPRPRPRPPANPRP | 0.48 |
| RRIRWRPPRLPRPRPRPQMLPRP | 0.313 |
| RRIRLRPPRLPRPRPRPFFMPRP | -0.369 |
| RRIRKRPPRLPRPRPRPCQYPRP | -0.26 |
| RRIRCRPPRLPRPRPRPAAKPRP | 0.164 |
| RRIRARPPRLPRPRPRPYLDPRP | 0.118 |
| RRIRKRPPRLPRPRPRPMTKPRP | 0.397 |
| RRIRCRPPRLPRPRPRPKHGPRP | -0.116 |
| RRIRFRPPRLPRPRPRPLCWPRP | 0.135 |
| RRIRERPPRLPRPRPRPHDTPRP | -0.332 |
| RRIRFRPPRLPRPRPRPGHCPRP | 0.0688 |
| RRIRTRPPRLPRPRPRPDAYPRP | -0.134 |
| RRIRIRPPRLPRPRPRPMPCPRP | 0.00854 |
| RRIRPRPPRLPRPRPRPAGAPRP | 0.309 |
| RRIRARPPRLPRPRPRPTWIPRP | 0.291 |
| RRIRCRPPRLPRPRPRPQGWPRP | -0.0139 |
| RRIRGRPPRLPRPRPRPLQQPRP | 0.28 |
| RRIRVRPPRLPRPRPRPHWIPRP | -0.512 |
| RRIRKRPPRLPRPRPRPMRKPRP | 1.44 |

| Sequence | shrunken log2 fold change |
| --- | --- |
| RRIRHRPPRLPRPRPRPERIPRP | -0.0507 |
| RRIRKRPPRLPRPRPRPCPTPRP | 0.0658 |
| RRIRWRPPRLPRPRPRPWFDPRP | 2.76 |
| RRIRCRPPRLPRPRPRPCYVPRP | -1.08 |
| RRIRARPPRLPRPRPRPWGIPRP | -0.0125 |
| RRIRFRPPRLPRPRPRPTTCPRP | -0.19 |
| RRIRWRPPRLPRPRPRPMWMPRP | -0.195 |
| RRIRDRPPRLPRPRPRPNLRPRP | -0.162 |
| RRIRMRPPRLPRPRPRPVIVPRP | -0.313 |
| RRIRQRPPRLPRPRPRPKLPPRP | 0.146 |
| RRIRMRPPRLPRPRPRPSDVPRP | 0.141 |
| RRIRERPPRLPRPRPRPCLYPRP | -0.489 |
| RRIRVRPPRLPRPRPRPFCRPRP | -0.215 |
| RRIRFRPPRLPRPRPRPEDLPRP | 0.143 |
| RRIRIRPPRLPRPRPRPNIFPRP | -0.319 |
| RRIRTRPPRLPRPRPRPATSPRP | -0.12 |
| RRIRGRPPRLPRPRPRPHQAPRP | 0.354 |
| RRIRYRPPRLPRPRPRPQICPRP | -0.00591 |
| RRIRRRPPRLPRPRPRPINNPRP | -0.407 |
| RRIRWRPPRLPRPRPRPLHAPRP | 0.499 |
| RRIRPRPPRLPRPRPRPYMNPRP | -1.01 |
| RRIRYRPPRLPRPRPRPCTFPRP | -0.208 |
| RRIRTRPPRLPRPRPRPFCIPRP | -0.361 |
| RRIRIRPPRLPRPRPRPTDGPRP | -0.00546 |
| RRIRERPPRLPRPRPRPMPAPRP | -0.0153 |

| Sequence | shrunken log2 fold change |
| --- | --- |
| RRIRKRPPRLPRPRPRPVPAPRP | 0.648 |
| RRIRYRPPRLPRPRPRPSATPRP | -0.104 |
| RRIRARPPRLPRPRPRPVMSPRP | 0.0513 |
| RRIRFRPPRLPRPRPRPVQHPRP | -0.044 |
| RRIRLRPPRLPRPRPRPEPDPRP | 0.342 |
| RRIRLRPPRLPRPRPRPMTNPRP | -0.0811 |
| RRIRHRPPRLPRPRPRPCYKPRP | -0.522 |
| RRIRVRPPRLPRPRPRPAVIPRP | -0.0266 |
| RRIRERPPRLPRPRPRPYRGPRP | -0.00417 |
| RRIRTRPPRLPRPRPRPKWFPRP | -0.0479 |
| RRIRCRPPRLPRPRPRPIMSPRP | -0.128 |
| RRIRNRPPRLPRPRPRPYRQPRP | -0.01 |
| RRIRFRPPRLPRPRPRPMNRPRP | -0.0364 |
| RRIRDRPPRLPRPRPRPSSDPRP | 0.412 |
| RRIRLRPPRLPRPRPRPPDSPRP | 0.0353 |
| RRIRVRPPRLPRPRPRPKMPPRP | -0.0804 |
| RRIRVRPPRLPRPRPRPIPFPRP | 0.0609 |
| RRIRLRPPRLPRPRPRPPLTPRP | 0.288 |
| RRIRERPPRLPRPRPRPPINPRP | -0.224 |
| RRIRSRPPRLPRPRPRPNIDPRP | -0.204 |
| RRIRIRPPRLPRPRPRPPSDPRP | -0.101 |
| RRIRWRPPRLPRPRPRPNSHPRP | -0.16 |
| RRIRERPPRLPRPRPRPLDPPRP | -0.102 |
| RRIRVRPPRLPRPRPRPKNAPRP | -0.197 |
| RRIRYRPPRLPRPRPRPWNFPRP | -0.00304 |

| Sequence | shrunken log2 fold change |
| --- | --- |
| RRIRKRPPRLPRPRPRPNAYPRP | -0.082 |
| RRIRHRPPRLPRPRPRPCVVPRP | 0.000418 |
| RRIRQRPPRLPRPRPRPFWNPRP | -0.00884 |
| RRIRDRPPRLPRPRPRPYQSPRP | -1.12 |
| RRIRWRPPRLPRPRPRPQILPRP | -0.164 |
| RRIRMRPPRLPRPRPRPSTVPRP | -0.0552 |
| RRIRWRPPRLPRPRPRPKPHPRP | 0.351 |
| RRIRFRPPRLPRPRPRPLGPPRP | 0.148 |
| RRIRKRPPRLPRPRPRPEKCPRP | 0.0317 |
| RRIRMRPPRLPRPRPRPNTDPRP | -0.196 |
| RRIRERPPRLPRPRPRPKDKPRP | -0.15 |
| RRIRFRPPRLPRPRPRPVVSPRP | 0.0235 |
| RRIRYRPPRLPRPRPRPWQDPRP | -0.122 |
| RRIRGRPPRLPRPRPRPDFLPRP | 0.318 |
| RRIRNRPPRLPRPRPRPSYCPRP | -0.267 |
| RRIRFRPPRLPRPRPRPNLMPRP | -0.144 |
| RRIRCRPPRLPRPRPRPRIHPRP | -0.226 |
| RRIRTRPPRLPRPRPRPSCNPRP | -0.768 |
| RRIRVRPPRLPRPRPRPRRNPRP | 0.108 |
| RRIRVRPPRLPRPRPRPALHPRP | 0.202 |
| RRIRGRPPRLPRPRPRPSKPPRP | 0.218 |
| RRIRNRPPRLPRPRPRPGSHPRP | -0.291 |
| RRIRWRPPRLPRPRPRPEVEPRP | -0.016 |
| RRIRGRPPRLPRPRPRPRVGPRP | 1.02 |
| RRIRRRPPRLPRPRPRPRWEPRP | 0.0983 |

| Sequence | shrunken log2 fold change |
| --- | --- |
| RRIRLRPPRLPRPRPRPVENPRP | -0.209 |
| RRIRMRPPRLPRPRPRPNHAPRP | -0.113 |
| RRIRLRPPRLPRPRPRPQWGPRP | 0.00618 |
| RRIRHRPPRLPRPRPRPECIPRP | -0.00992 |
| RRIRYRPPRLPRPRPRPNDKPRP | -0.892 |
| RRIRCRPPRLPRPRPRPKLDPRP | 0.125 |
| RRIRGRPPRLPRPRPRPISIPRP | 0.199 |
| RRIRERPPRLPRPRPRPKTSPRP | -0.102 |
| RRIRHRPPRLPRPRPRPVRWPRP | 0.98 |
| RRIRTRPPRLPRPRPRPCNRPRP | -0.144 |
| RRIRFRPPRLPRPRPRPQINPRP | -0.239 |
| RRIRRRPPRLPRPRPRPRSDPRP | 0.323 |
| RRIRERPPRLPRPRPRPVNHPRP | -0.229 |
| RRIRCRPPRLPRPRPRPQMTPRP | 0.218 |
| RRIRTRPPRLPRPRPRPKQSPRP | 0.113 |
| RRIRHRPPRLPRPRPRPMRVPRP | -0.0146 |
| RRIRQRPPRLPRPRPRPSERPRP | -0.143 |
| RRIRHRPPRLPRPRPRPCYVPRP | -1.53 |
| RRIRVRPPRLPRPRPRPSLPPRP | -0.226 |
| RRIRSRPPRLPRPRPRPKMLPRP | -0.149 |
| RRIRGRPPRLPRPRPRPYQKPRP | -0.00887 |
| RRIRPRPPRLPRPRPRPQGDPRP | 0.243 |
| RRIRCRPPRLPRPRPRPLFVPRP | -0.482 |
| RRIRQRPPRLPRPRPRPHTFPRP | -0.174 |
| RRIRHRPPRLPRPRPRPWNPPRP | -0.221 |
